“And” between values parts separate entries of the source, which are not always exact repeats. Identical values can stand only once.
T1: 重组人CD123抗原(细胞外结构域，Sino Biological) (human, UniProt P26951 19-305)
T1 construct: Bought; also called 重组的纯化CD123抗原
T1 sequence: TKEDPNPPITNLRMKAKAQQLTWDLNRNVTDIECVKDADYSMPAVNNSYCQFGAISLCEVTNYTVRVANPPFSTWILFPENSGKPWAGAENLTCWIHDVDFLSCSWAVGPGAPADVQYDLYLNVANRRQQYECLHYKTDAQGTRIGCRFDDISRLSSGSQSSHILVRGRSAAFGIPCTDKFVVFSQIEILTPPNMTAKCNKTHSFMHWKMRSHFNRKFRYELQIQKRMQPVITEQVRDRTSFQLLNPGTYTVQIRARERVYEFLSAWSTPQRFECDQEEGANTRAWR

B1: 抗CD123 VHH 1A3 (VHH)
VHH: EVQLVESGGGLVQAGGSLRLSCAASGRAINTYAMAWFRQAPGKERDFVATISYSGGTTDYAGSVKGRFTISRDNAENTVYLQMNSLKPEDTAVYYCAARDRYNPLARNYNYWGQGTQVTVSS
notes: also called 1A3抗体
B2: 1D2-5C8var1(Y105F)-Fc (bispecific antibody, V domains shown)
V domain 1: EVQLLESGGGSVQPGGSLRLSCAASGRPFSNYAMSWFRQAPGKEREFVSAISWSGGSTSYADSVKGRFTISRDNSKNTLYLQMNSLRAEDTAVYYCAAQFSGADFGFGRLGIRGYEYDYWGQGTQVTVSS
V domain 2: EVQLVESGGGLVQAGGSLRLSCAASGRTASSYVMGWFRQAPGKEREFVAVINWNGDSTYYTDSVKGRFAISRDNAKNTVYLQMNSLKPEDTAVYYCAADTRREWYRDGYWGPPARYEYDYRGQGTQVTVSS

Key:
人CD123 (在细胞上表达) [1] = target: T2, 人CD123 (在细胞上表达) (human, UniProt P26951 19-378); test: flow cytometry on the C1R-CD1d cells expressing CD123 used for immunisation
T2 construct: Used for all cells that carry CD123; the cell is named under assay or readout; Expression construct for 293F bought from Invivogen; also called 白介素-3受体α链; 瞬时表达CD123的293F细胞

[2] = target: T1, 重组人CD123抗原(细胞外结构域，Sino Biological); test: phage ELISA on captured recombinant antigen
人CD123 (在细胞上表达) [3] = target: T2, 人CD123 (在细胞上表达); test: cell-based or functional assay

Binder | binding result (人CD123 (在细胞上表达) [1]) | binding result [2] | EC50 of T细胞介导的THP-1靶细胞的细胞毒性 (24小时) (人CD123 (在细胞上表达) [3]) | THP-1裂解的EC50 (2号供体) (人CD123 (在细胞上表达) [3]) [pM] | THP-1靶细胞裂解的效力(EC50), THP-1:pDC:Vγ9Vδ2T 1:1:2共培养 (人CD123 (在细胞上表达) [3]) [pM] | pDC裂解的EC50 (2号供体) (人CD123 (在细胞上表达) [3]) [pM] | pDC裂解的EC50相对于THP-1裂解的EC50 (人CD123 (在细胞上表达) [3]) [fold]
B1 | binds | binds | – | – | – | – | –
B2 | – | – | 1 pM and 3 pM | 1 | ~1 | 11 | ~10

From patent publication CN117545772A (FUSION THERAPEUTICS INC, dated 2024)
